Key:
[1] = molecular target: T1, hCD70-hFc (human, UniProt P32970 39-193, limits assumed); test: BLI, scFv on HIS1K sensor, hCD70-hFc analyte; row for 12.5 nM (same fit value in all rows)
T1 construct: the order here follows the printed name; not shown: human immunoglobulin Fc (hFc)
T1 sequence (looked up): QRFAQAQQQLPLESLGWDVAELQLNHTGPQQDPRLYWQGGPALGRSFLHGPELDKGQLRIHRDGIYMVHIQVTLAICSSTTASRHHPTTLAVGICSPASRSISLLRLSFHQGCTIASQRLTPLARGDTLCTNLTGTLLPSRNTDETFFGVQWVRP

[2] = molecular target: T1, hCD70-hFc; test: BLI, scFv on HIS1K sensor, hCD70-hFc analyte; row for 100 nM (same fit value in all rows)
[3] = molecular target: T1, hCD70-hFc; test: BLI, scFv on HIS1K sensor, hCD70-hFc analyte; row for 25 nM (same fit value in all rows)
[4] = molecular target: T1, hCD70-hFc; test: BLI, scFv on HIS1K sensor, hCD70-hFc analyte; row for 50 nM (same fit value in all rows)

- Kd [1]: 21.4 nM
- koff [1]: 0.0016 s⁻¹
- kon [1]: 74000 M⁻¹ s⁻¹
- Kd [2]: 21.4 nM
- koff [2]: 0.0016 s⁻¹
- kon [2]: 74000 M⁻¹ s⁻¹
- Kd [3]: 21.4 nM
- koff [3]: 0.0016 s⁻¹
- kon [3]: 74000 M⁻¹ s⁻¹
- Kd [4]: 21.4 nM
- koff [4]: 0.0016 s⁻¹
- kon [4]: 74000 M⁻¹ s⁻¹
B1: 靶向CD70 ScFv (scFv, V domains shown)
VH: EVQLVQSGPEVKKPGASVKVSCKASGYTFTDYYMNWVRQMHGKGLEWMGVINPYNGGTDYNQKFKGRVTITADKSTSTAYMELSSLRSEDTAVYYCARSVYDYPFDYWGQGTLVTVSS
VL: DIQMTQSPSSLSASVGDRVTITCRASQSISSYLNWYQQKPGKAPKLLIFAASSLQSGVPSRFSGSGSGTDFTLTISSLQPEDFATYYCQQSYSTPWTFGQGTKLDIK

Source: patent publication CN113817056A (CHONGQING PREC BIOTECH CO LTD; CHONGQING JINGZHUN BIO …, dated 2021)
